B1: PCAF HAT domain (amino acids 493-658) L512A/M513A/V516A (domain or fragment, human, UniProt Q92831 493-658, looked up)
chain: VIEFHVVGNSLNQKPNKKIAAWLAGLQNVFSHQLPRMPKEYITRLVFDPKHKTLALIKDGRVIGGICFRMFPSQGFTEIVFCAVTSNEQVKGYGTHLMNHLKEYHIKHDILNFLTYADEYAIGYFKKQGFSKEIKIPKTKYVGYIKDYEGATLMGCELNPRIPYTE
notes: p300/CBP associated factor (PCAF, KAT2B), human, HAT domain, residues 493-658; also called LMV512AAA
B2: PCAF HAT domain (amino acids 493-658) L512D/V516D/F539A (domain or fragment, human, UniProt Q92831 493-658, looked up)
chain: VIEFHVVGNSLNQKPNKKIDMWLDGLQNVFSHQLPRMPKEYITRLVADPKHKTLALIKDGRVIGGICFRMFPSQGFTEIVFCAVTSNEQVKGYGTHLMNHLKEYHIKHDILNFLTYADEYAIGYFKKQGFSKEIKIPKTKYVGYIKDYEGATLMGCELNPRIPYTE
notes: p300/CBP associated factor (PCAF, KAT2B), human, HAT domain, residues 493-658; also called LVF512DDA
B3: PCAF HAT domain (amino acids 493-658) F539A (domain or fragment, human, UniProt Q92831 493-658, looked up)
chain: VIEFHVVGNSLNQKPNKKILMWLVGLQNVFSHQLPRMPKEYITRLVADPKHKTLALIKDGRVIGGICFRMFPSQGFTEIVFCAVTSNEQVKGYGTHLMNHLKEYHIKHDILNFLTYADEYAIGYFKKQGFSKEIKIPKTKYVGYIKDYEGATLMGCELNPRIPYTE
notes: p300/CBP associated factor (PCAF, KAT2B), human, HAT domain, residues 493-658
B4: PCAF HAT domain (amino acids 493-658) L512D/V516D (domain or fragment, human, UniProt Q92831 493-658, looked up)
chain: VIEFHVVGNSLNQKPNKKIDMWLDGLQNVFSHQLPRMPKEYITRLVFDPKHKTLALIKDGRVIGGICFRMFPSQGFTEIVFCAVTSNEQVKGYGTHLMNHLKEYHIKHDILNFLTYADEYAIGYFKKQGFSKEIKIPKTKYVGYIKDYEGATLMGCELNPRIPYTE
notes: p300/CBP associated factor (PCAF, KAT2B), human, HAT domain, residues 493-658; also called LV512DD

Target: the molecule itself
Test: cross-linking; 1 mg/ml protein in 50 mM HEPES pH7.5, 50 mM sodium sulfate; DSS at 5X molar concentration, 1 h at room temperature; SDS-PAGE, coomassie blue

Binding result, binds:
B1
B2
B3
B4
